Assay results as given in paper PMC2942778 (Biochemistry, 2010).

Molecular target: the molecule itself
Assay: AUC

B1: BlaI gene repressor (blaI gene product) of plasmid pI258 from S. aureus NRS128 (natural protein)
chain: MANKQVEISMAEWDVMNIIWGKKSVSANEIVVEIQKYKEVSDKTIRTLITRLYKKEIIKRYKSENIYFYSSNIKEDDIKMKTAKTFLNKLYGGDMKSLVLNFAKNEELNNKEIEELRDILNDISKK
B1 was tested, and the Kd was 1610 ± 20 nM and the “stoichiometry N” value was 2.
